Test results: patent US6734169B2, “Apolipoprotein A-I agonists and their use to treat dyslipidemic disorders” (priority 1997, dated 2004)

Target: T1, LCAT (purified from human plasma) (Homo sapiens, UniProt P04180)
T1 construct: The reaction is initiated by addition of LCAT (purified from human plasma); from tissue
T1 sequence (P04180 25-440): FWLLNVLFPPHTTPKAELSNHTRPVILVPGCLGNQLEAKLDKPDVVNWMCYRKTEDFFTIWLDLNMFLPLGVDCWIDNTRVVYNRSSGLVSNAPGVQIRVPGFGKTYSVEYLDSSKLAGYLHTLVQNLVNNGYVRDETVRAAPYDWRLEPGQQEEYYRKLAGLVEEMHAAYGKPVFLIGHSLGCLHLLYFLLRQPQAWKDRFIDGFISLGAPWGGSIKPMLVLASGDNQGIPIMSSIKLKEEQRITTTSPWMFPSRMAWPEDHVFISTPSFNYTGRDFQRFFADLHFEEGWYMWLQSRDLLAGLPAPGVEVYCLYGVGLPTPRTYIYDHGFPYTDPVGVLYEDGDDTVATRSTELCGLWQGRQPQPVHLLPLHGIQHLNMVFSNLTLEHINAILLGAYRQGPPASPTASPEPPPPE
Assay: LCAT activation assay
Type: biochemical
Details: LCAT activation as compared with native human ApoA-I (=100%); equivalent masses of peptide or ApoA-I; SUVs of EPC or POPC and radiolabelled cholesterol; listed as peptide 18AM4
Experimental: The peptides synthesized as described in Section 6, supra, were analyzed in vitro for their ability to activate LCAT. In the LCAT assay, substrate vesicles (small unilamellar vesicles or “SUVs”) composed of egg phophatidylcholine (EPC) or 1-Palmitoyl-2-oleyl-phosphatidylcholine (POPC) and radiolabelled cholesterol are preincubated with equivalent masses either of peptide or ApoA-I (isolated from human plasma). The reaction is initiated by addition of LCAT (purified from human plasma). Native ApoA-I, which was used as positive control, represents 100% activation activity. “Specific activity” (i.e., units of activity (LCAT activation)/unit of mass) of the peptides can be calculated as the concentration of peptide that achieves maximum LCAT activation. For example, a series of concentrations of the peptide (e.g., a limiting dilution) can be assayed to determine the “specific activity” for the peptide—the concentration which achieves maximal LCAT activation (i.e., percentage conversion of cholesterol to cholesterol ester) at a specific timepoint in the assay (e.g., 1 hr.). When plotting percentage conversion of cholesterol at, e.c., 1 hr., against the concentration of peptide used, the “specific activity” can be identified as the concentration of peptide that achieves a plateau on the plotted curve. […]

Q: Which “ACTIVITY (%) LCAT” value does the source give for EWLEAFYKKVLEKLKELF [peptide 246] here?
A: less than 4%
